Experimental data: the nanobody polyreactivity screen of Harvey et al. (2022)

Experiment: yeast display, Sf9 membrane polyspecificity reagent, FACS + sequencing; frameworks hold sequencing errors
Method in brief: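 Galactose induction of a Saccharomyces cerevisiae BJ5465 synthetic nanobody display library ran 36–48 hours. The cells were then stained for 1 hour at 4 °C with 10% biotinylated, detergent-solubilized Sf9 membrane reagent, pulled down on streptavidin microbeads and FACS-sorted into low and high (top ~1%) gates on expression and reagent-binding fluorescence. Labels for polyreactivity follow the gate of origin.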

Row | Sequence | polyreactivity (PSR sort gate)
1 | QVQLVESGGGLVQAGGSLRLSCAASGFTLDWYVMGWYRQATGKERELVAAISSSGGRTYYADSVKGRFTISRDNAKNTVYLQMNSLKPEDTAVYYCAARNQYGGYPYGYDYWGQGTQVTVSS | high polyreactivity
2 | QVQLVESGGGLVQAGGSLRLSCAASGFTFYDNAMGWYRQAPGKERELVAAISWGGGSTYYADSVKGRFTISRDNAKNTVYLQMNSLKPEDTAVYYCNVYYGRVLLGFYYWGQGTQVTVSS | low polyreactivity
3 | QVQLVESGGGLVQAGGSLRLRCAASGRTLGRYAMGWYRQAPGKDRELVAAIRIGGGSTYYADSVKGRFTISRDNAKNTVYLQMISLKPEDTAVYYCATRGYINGAGFGYWGQGTQVTVSS | high polyreactivity
4 | QVQLVESGGGLVQAGGSLRLSCAASGYTFNYYAMGWYRQAPGKERELVAAISASSDSTYYADSVKGRFTISRDNAKNTVYLQMNSLNPEDTAVYYCAAVSGRYRIYRYDYWGQGTQVTVSS | low polyreactivity
5 | QVQLVESGGGLVQAGGSLRLICAASGRIFRGNVMGWYRQAPGKERELDAAISSGGRTYYADSVKGRFTISRDNAKNTVYLQMNSLKPEDSAVYYCAKAFREGEGKFDYWGQGTQVTVSS | high polyreactivity
6 | QVQLVESGGGLVQAGGSLRLSCAASGSIFRFYAMGWYRQAPGKEGELVAAITSGGSTNYADSVKGRFTISRDNAKNTVYLQMNSLKPEDTAVSYCAAVVVYFFIYDYWGQGTQVTVSS | low polyreactivity
7 | QVHLVESGGGLVQAGGSLRLSCHASGSNFYSYGLGSYRQAPGKERELVAAITSSGGGTYYADSVKGGFTISRDNAKNTVYLQMHSLKPEDTAVYYCNADHFSDNSSTQYDYWGQGTQVTVSS | low polyreactivity
8 | QVQLVESGGGLVQAGGSLRLSCAASGRTFHVYAMGWYRPAPGKERELVATITDGSTNYADSVKGRFTISRDNAKNTVYLQMNSLKPEDSAVYYCATVRAWIPSGDYEYWGQGTQVTVSS | low polyreactivity
9 | QVQLVESGGGLVQAGGSLRLSCAASGSIFGPYVMGWYRQAPGKERELVAAISKSGGSTYYADSVKGRFTISRDNAKNTVYLQMNSLKPEDTAVYYCATDYLGGGKRYYYWGQGTQVTVSS | high polyreactivity
10 | QVQLVESGGGLVQAGGSLRLSCAASGSIFGVYAMGWYRQAPGKEREFVASISWSAGSTYYADSVKGRFTISRDNAKNTVYLQMNSLKPEDTAVYYCAARVWRYPYYWGQGTQVTVSS | high polyreactivity
11 | QVQLVESGGGLVQAGGSLRLSCAASGRIFSRYAMGWYRQAPGKERELVAAITYSGGSTYYADSVKGRFTISRDNAKNTVYLQMNSLKPEDTAVYYCNAATYGGRYYYWGQGTQVTVSS | high polyreactivity
12 | QVQLVESGGGLVQAGGSLRLSCAASGNIFYRKARGWYRQAPGKERELVAAITSGGGSTYYADSVKGRFTISRDNAKNTVYLQMNSLKPVDTAVYYCNAYAWNYFGIKVTYDYWGQGTQVTVSS | high polyreactivity
13 | QVQLVESGGGLVQARGILRLSCAASGIIFYTYAMGLYRQAPGKERELVAAITARTANTYYADSVKGRFTISRDNAKNTVYLQMNSLKPEDTAVYYCAAAIYSYRTPYYYWGQGTQVTVSS | high polyreactivity
14 | QVQVVESWGGLVQEAGSLRLSCAASGRTFAHYNMGSYRQAPGKERELVARIDWSCGNTYYADSVKGRFTISRDNAKITVFLQMNRLKPQDTAVYYCAAVPAFYNAWGEDYEYWGQGTHVTVSS | low polyreactivity
15 | QVQLVESGGGLVQAGGSLRLSCAASGRIFFTNDMGWYRQAPGKERELVATITGNGASTFYADSVKGRFTISRDNAKNTVYLQMNSLKPEDSAVYYCNADRSSYPRYDYWGQGTLVTVSS | low polyreactivity
16 | QVQLVESGGGLVQARGSLRLSCAATGSTLSFYAMVWYRQAPGKERELVAAISYSTGTTYYADSVKGRFTISRDNAKNTVYLQMNSLKPEDTAVYYCNAVGTGGYSSEYGYWGQGTQVTVSS | high polyreactivity
17 | QVQLVESGGGLVQAGGSLRLSCAASGFIFWDYAMGLYRQAPGKERELVAAISDSGGDTYYADSVKGRFTISRDNAKNTVYFQINSLKPEDTAVYYCSADVELWVFRGQQYDYWGQGTQVTVSS | low polyreactivity
18 | QVQLVESGGGLVQAGGSLRLSCAASGFIFAYYAMGWYRQAPGKERELVAAISQSGTSTYYADSVKGRFTISRDNAKNTVYLQMNSLKPEDTAVYYCNVVPTGVHIFDYWGQGTQVTVSS | low polyreactivity
19 | QGQLVESGGGLVQAGGSLSLSCAASGFTFRYYTMGWYIQAPGKERALVASISRRGGSTYYADSVKGRFTISRDNAMNTVYLQMHSLKPEGTAVYYCNPLSQVFASRAPKFDYWGQGTQVTVSS | high polyreactivity
20 | QVQLVESGGGLVQAGGSLRLSCAASGYTYSDNAMGWYRPAPGKERELVAAITSGVSTYYADSVKGRFTISRDNAKNTVYLQMNSPKPEDTAVYYCAKDVAVYADLYQGAPYGYWGQGTQVTVST | low polyreactivity
21 | QVQLVESGGGLVQAGGSLRLSCAASGRIFGFYAMGWYRQAPGKERELVADITSGGSTNYADSVKGRFTISRDNAKNTVYLQMNSLKPEDTAVYYCNALSYVWYRYPGNWDEDDYWGQGTQVTVSS | low polyreactivity
22 | QGHLVESGGGLVQAGGSLRLSCAASGVTFYTYDMGWYRQAPGKERELVAGIDWSGGSTYYADSVNGRFTISRDNAKNTVDLLMNSLKPEYTAVYYCASDYYYASQMDYWGQGTQVTVSS | low polyreactivity

Row | Sequence | polyreactivity (PSR sort gate)
23 | QVQLVESGGGLVQAGGSLRLTCAASGYTFVLNALGWYRQAPGKEREFVAAITWSGGSTYYADSVKGRFTISRDNAKNTVYLQMNSLKAEDTAVYYCAADPDSGQVPFDYWGQGTQVTVSS | low polyreactivity
24 | QVQHVESVGCLVQAAGSLPLSCAASGSTFSSYAMGWYRQAPGKERELVAAISTSGGSTYYADSVKGRFTISRDNAKNTVYLQMNSLKQEDTAVYYCYAGPSYYPFFWPDFEYWVQGTQVTVSS | high polyreactivity
25 | QVQLVESGGGLVQAGGSLRLSCAASGSIFIYNAMGWYRQAPGKERELVAAISSSGGSTYYADSVKGRFTISRDNAKNTVYLQMNSLKPEDTAVYYCAARTYYVRGLGGRPGMDYCGQGTQVTVSS | low polyreactivity
26 | QVQLVESGGGLVQAGGSLRLSCAASGSIFGRYAMGWYRQAPGKERELVAAISWRGGSTYYADSVKGRFTISRDNAKNTVYLQMNSLKPEDTAVYYCNVPYRSGYSHRYDYWGQGTQVTVSS | high polyreactivity
27 | QVQLVESGGGLVQAGGSLRLSCAASGITFARYAMGWYRQAPGKERELVAAISRNAGRTYYADSVKGRFTISRDNAKNTVYLQMNSLKPEDTAVYYCAAVTKSSVPGSRYDYWGQGTQVTVSS | high polyreactivity
28 | QVQLVESGGGLVQAGGSLRLSCAASGFTSSQYAMGWYRQAPGKERELVAAITSSGSSTYYADSVKGRFTISRDNAKNTVYLQMNSLKPEDTAVYYCNTDAYHRYPGSVWYYYWGQGTQVTVSS | high polyreactivity
29 | QVQLVESGGGVVQAGGSLRLSCAASGRTFYRYAMGWYRQAPGKERELDAAISWRGGSTRYADSVKGRFTISRDNAKNTVYFQMNSLKPEDTAVYSCATRSTYWGWSSYGMDHWGQGTQVTVSS | high polyreactivity
30 | QVQLVESGGGLVQAGGSLRLSCAASGRIFLINGMGWYRQAPGKERELVAVITQSGGTYYADSVKGRFTISRDNAKNTVYLQMNSLKPEDTAVYYCAASSYGASRGYWGQGTQVTVSS | high polyreactivity
31 | QVQLVESGGGLVQAGGSRRLSCAASGRVFFNNAMGWYRQAPGKDREWVAGITSGSSTNYADSVKGRFTISRDNAKNTVYLQMNSLKPEYTAVDYCNKAPSWWDVRVPFDYWGQGTQVTVSS | low polyreactivity
32 | QVQLVESGGGLVQAGGSLRLSCAASGRIFRFYAMGWYRQAPGKERVLVAAITRNVGSTFYADSVKGRFTISRDNAKNTVYLQMNSLKPEDSAVFYCAAESDYYYRYTFDYWGQGTQVTVSS | low polyreactivity
33 | QVQLVESGRCLVQAGCSLRLSCAASGYTFSRSAMGWYRQAPGKERELVAAISWSGGSTYYADSVKGRFTISRDNAKNTVYLQMNSLKPEDTAVYYCIKVRYVSQTAFYYWGQGTQVTVSS | high polyreactivity
34 | QVQLVESGGGLVQAGGSLRLSCAASGYIFDHYAMGWYRQAPGKEREFVAAISRSAGSTYYADSVKGRFTISRDNAQNTVYLQMNSLKPEDTAVYYCNAVVAVRSWRKYEYWGQGTQVTVSS | high polyreactivity
35 | QVQLVESGGGLVQAGGSLLLSCAASGSIFRVYAMGGYRQAPGKESELVAAISVSGSSTYYADSVKGRFTISRDNAKNTVYFQMNCLKREDTAVYYCATKQRRGYWGYITAYARYYWGQGTQVSVSS | high polyreactivity
36 | QVQHVESGGGLVQAGGSLRLSCAASGNIFYTNAMGWYRQATGKERELVAAISGSGGRTYYADSVKGRFTISRDNAKNTVYLQMNSLKPEDTAVYYCNAVRRDYYDRTYGYWGQGTQVTVSS | low polyreactivity
37 | QVQLVQSGGGLVQAGGSLRVSCAPSGRIYAMGWSRQAPGKERELVARITKSGTSTYYADSVKGRFTISRDNAKNTVYLQMNSMKPEDTAVYYCATATFYRSVLYGYWGQGTQVTVSS | high polyreactivity
38 | QVQLVESGGGLVQAGGSLRISCAASGSIFTAYAMGWYRQAPGKERELVAAITQSAGSTYADSVKGRFTISRDNAKNTVYLPMHSLNQEDTAVSYCAARYRYPYYARYGYWGQGTQVTVSS | high polyreactivity
39 | QVQLQESGGGLVQAGGSLRLSCAASGSISGPQVMVWYRQAPGKEREFVAAINVGANTYYADNVKGRFTISRDNAKNTVYLQMNSLKPEDTAVYYCAAVYYGDIGHESWGQGTQVTVSC | low polyreactivity
40 | QVQLVESGGGLVQAGGSLRLSCAASGRIFGWYAMGWYRQAPGKERELVAAISWSGGSTYADSVKGRFTISRDNAKNTVYLQMNSLKPEDTAVYYCAADVAYVEYDYWGQGTQVTVSS | low polyreactivity
41 | QVQLVESGGGLDQAGGSLRLSCAASGRTFRYYAMGWDRQAPGKERELVAAITGSGGSTYYADSVKGRFTISRDIAKNTVYLQMNSLKPEDTAVYYCATRWALRWRGGYWGQGTQVTVSS | high polyreactivity
42 | QVQLVESGGGLVQAGGSLRLSCAASGFIFYSYAMGWYRQAPGKERELVAAISTSGGSTYYADSVKGRFTISRDNAKNTVYLQMNSLKPEDTAVYYCNARGTRASRYDYWGQGTQVTVSS | high polyreactivity
43 | QVQLVESGGGLVQAGGSLRLSCAASGIYYNAMGWYRHAPGKERELVAAITTGDRTNYADSVKGRFTISRDNAKNTVYLQMNSLKPEDTAVYYCNAVVERLSSTARDFAYDYWGQGTQVTVSS | low polyreactivity
